Test results taken from PMC9352680, “A comprehensive thermodynamic model for RNA binding by the Saccharomyces cerevisiae Pumilio protein PUF4”.
Positions count from the first letter of the chain named. Names and notes keep the numbering of the source.

T1: PUF4 RNA-binding domain (Saccharomyces cerevisiae, UniProt P25339 537-888)
T1 sequence: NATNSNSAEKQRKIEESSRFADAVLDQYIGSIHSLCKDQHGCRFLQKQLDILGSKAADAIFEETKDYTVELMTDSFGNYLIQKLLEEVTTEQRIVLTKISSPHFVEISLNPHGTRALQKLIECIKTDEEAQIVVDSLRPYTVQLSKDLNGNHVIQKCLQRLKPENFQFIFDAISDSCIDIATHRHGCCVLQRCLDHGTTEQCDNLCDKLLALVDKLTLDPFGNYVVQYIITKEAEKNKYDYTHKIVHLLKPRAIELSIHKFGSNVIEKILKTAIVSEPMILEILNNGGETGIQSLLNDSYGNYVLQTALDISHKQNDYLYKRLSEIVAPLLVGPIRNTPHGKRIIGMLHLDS

B1: Ib_S4_P3E.1_K3.1_C3.1_H3.1_[G2C]_A3.1_F3.1_[T7C]_T3.1 (ssRNA)
RNA: UUUGACAACUGAUCGUUCUUUCUUCUAUACAUUCUUUCUCGAUCAGUUGUCUUU
B2: Ib_S4_P3E.1_K3.1_C3.1_H3.1_[G2A]_A3.1_F3.1_[T7A]_T3.1 (ssRNA)
RNA: B1 RNA with C25A, C30A
B3: Ib_S4_P3E.1_K3.1_C3.1_H3.1_A3.1_[T5A]_F3.1_[T7A]_T3.1 (ssRNA)
RNA: B1 RNA with C25G, U28A, C30A
B4: Ib_S4_P3E.1_K3.1_C3.1_H3.1_[T1C]_A3.1_[T5A]_F3.1_T3.1 (ssRNA)
RNA: B1 RNA with U24C, C25G, U28A, C30U
B5: Ib_S4_P3E.1_K3.1_C3.1_H3.1_[A4C]_A3.1_F3.1_[A8T]_T3.1 (ssRNA)
RNA: B1 RNA with C25G, A27C, C30U, A31U
B6: Ib_S4_P3E.1_K3.1_C3.1_H3.1_[G2C]_[A4C]_A3.1_F3.1_T3.1 (ssRNA)
RNA: B1 RNA with A27C, C30U
B7: Ib_S4_P3E.1_K3.1_C3.1_H3.1_[T3C]_A3.1_F3.1_[A8T]_T3.1 (ssRNA)
RNA: B1 RNA with C25G, U26C, C30U, A31U
B8: Ib_S4_P3E.1_K3.1_C3.1_H3.1_[T3C]_[A4G]_A3.1_F3.1_T3.1 (ssRNA)
RNA: B1 RNA with C25G, U26C, A27G, C30U
B9: Ib_S4_P3E.1_K3.1_C3.1_H3.1_A3.1_[A6T]_F3.1_[A8C]_T3.1 (ssRNA)
RNA: B1 RNA with C25G, A29U, C30U, A31C
B10: Ib_S4_P3E.1_K3.1_C3.1_H3.1_[T3C]_[A4T]_A3.1_F3.1_T3.1 (ssRNA)
RNA: B1 RNA with C25G, U26C, A27U, C30U
B11: Ib_S4_P3E.1_K3.1_C3.1_H3.1_[T1A]_[A4C]_A3.1_F3.1_T3.1 (ssRNA)
RNA: B1 RNA with U24A, C25G, A27C, C30U
B12: Ic_S4_P3E.1_K3.1_C3.1_H3.1_A3.1_[T5C]_F3.1_[A8C]_T3.1 (ssRNA)
RNA: B1 RNA with C25G, U28C, C30U, A31C
B13: Ib_S4_P3E.1_K3.1_C3.1_H3.1_A3.1_[A6T]_F3.1_[T7C]_T3.1 (ssRNA)
RNA: B1 RNA with C25G, A29U
B14: Ib_S4_P3E.1_K3.1_C3.1_H3.1_[G2T]_A3.1_[A6T]_F3.1_T3.1 (ssRNA)
RNA: B1 RNA with C25U, A29U, C30U
B15: Ib_S4_P3E.1_K3.1_C3.1_H3.1_A3.1_[A6T]_F3.1_[A8T]_T3.1 (ssRNA)
RNA: B1 RNA with C25G, A29U, C30U, A31U
B16: Ib_S4_P3E.1_K3.1_C3.1_H3.1_[G2C]_A3.1_F3.1_[A8T]_T3.1 (ssRNA)
RNA: B1 RNA with C30U, A31U
B17: Ib_S4_P3E.1_K3.1_C3.1_H3.1_[G2A]_A3.1_[T5C]_F3.1_T3.1 (ssRNA)
RNA: B1 RNA with C25A, U28C, C30U
B18: Ib_S4_P3E.1_K3.1_C3.1_H3.1_[T1C]_A3.1_F3.1_[A8T]_T3.1 (ssRNA)
RNA: B1 RNA with U24C, C25G, C30U, A31U
B19: Ib_S4_P3E.1_K3.1_C3.1_H3.1_[G2A]_A3.1_[A6G]_F3.1_T3.1 (ssRNA)
RNA: B1 RNA with C25A, A29G, C30U
B20: Ib_S4_P3E.1_K3.1_C3.1_H3.1_[T1A]_A3.1_[T5C]_F3.1_T3.1 (ssRNA)
RNA: B1 RNA with U24A, C25G, U28C, C30U
B21: Ib_S4_P3E.1_K3.1_C3.1_H3.1_[G2A]_[A4G]_A3.1_F3.1_T3.1 (ssRNA)
RNA: B1 RNA with C25A, A27G, C30U
B22: Ib_S4_P3E.1_K3.1_C3.1_H3.1_[T1A]_A3.1_[A6G]_F3.1_T3.1 (ssRNA)
RNA: B1 RNA with U24A, C25G, A29G, C30U
B23: Ic_S4_P3E.1_K3.1_C3.1_H3.1_A3.1_[A6C]_F3.1_[A8T]_T3.1 (ssRNA)
RNA: B1 RNA with C25G, A29C, C30U, A31U
B24: Ib_S4_P3E.1_K3.1_C3.1_H3.1_[G2C]_A3.1_F3.1_[T7A]_T3.1 (ssRNA)
RNA: B1 RNA with C30A
B25: Ib_S4_P3E.1_K3.1_C3.1_H3.1_[A4C]_A3.1_[T5C]_F3.1_T3.1 (ssRNA)
RNA: B1 RNA with C25G, A27C, U28C, C30U
B26: Ib_S4_P3E.1_K3.1_C3.1_H3.1_[G2T]_A3.1_F3.1_[A8G]_T3.1 (ssRNA)
RNA: B1 RNA with C25U, C30U, A31G
B27: Ib_S4_P3E.1_K3.1_C3.1_H3.1_[G2C]_[A4T]_A3.1_F3.1_T3.1 (ssRNA)
RNA: B1 RNA with A27U, C30U
B28: Ib_S4_P3E.1_K3.1_C3.1_H3.1_[G2C]_A3.1_F3.1_[A8C]_T3.1 (ssRNA)
RNA: B1 RNA with C30U, A31C
B29: Ib_S4_P3E.1_K3.1_C3.1_H3.1_[A4C]_A3.1_F3.1_[T7C]_T3.1 (ssRNA)
RNA: B1 RNA with C25G, A27C
B30: Ib_S4_P3E.1_K3.1_C3.1_H3.1_[G2A]_A3.1_[A6T]_F3.1_T3.1 (ssRNA)
RNA: B1 RNA with C25A, A29U, C30U
B31: Ic_S4_P3E.1_K3.1_C3.1_H3.1_A3.1_[A6G]_F3.1_[A8T]_T3.1 (ssRNA)
RNA: B1 RNA with C25G, A29G, C30U, A31U
B32: Ib_S4_P3E.1_K3.1_C3.1_H3.1_[T1G]_A3.1_[A6G]_F3.1_T3.1 (ssRNA)
RNA: B1 RNA with U24G, C25G, A29G, C30U
B33: Ib_S4_P3E.1_K3.1_C3.1_H3.1_A3.1_[A6G]_F3.1_[T7C]_T3.1 (ssRNA)
RNA: B1 RNA with C25G, A29G
B34: Ib_S4_P3E.1_K3.1_C3.1_H3.1_[T1A]_A3.1_[A6T]_F3.1_T3.1 (ssRNA)
RNA: B1 RNA with U24A, C25G, A29U, C30U
B35: Ib_S4_P3E.1_K3.1_C3.1_H3.1_[T1G]_A3.1_[T5C]_F3.1_T3.1 (ssRNA)
RNA: B1 RNA with U24G, C25G, U28C, C30U
B36: Ic_S4_P3E.1_K3.1_C3.1_H3.1_A3.1_[T5A]_F3.1_[A8G]_T3.1 (ssRNA)
RNA: B1 RNA with C25G, U28A, C30U, A31G
B37: Ib_S4_P3E.1_K3.1_C3.1_H3.1_[A4G]_A3.1_F3.1_[T7A]_T3.1 (ssRNA)
RNA: B1 RNA with C25G, A27G, C30A
B38: Ib_S4_P3E.1_K3.1_C3.1_H3.1_[G2A]_A3.1_[T5A]_F3.1_T3.1 (ssRNA)
RNA: B1 RNA with C25A, U28A, C30U
B39: Ib_S4_P3E.1_K3.1_C3.1_H3.1_[G2T]_[A4G]_A3.1_F3.1_T3.1 (ssRNA)
RNA: B1 RNA with C25U, A27G, C30U
B40: Ib_S4_P3E.1_K3.1_C3.1_H3.1_[T1C]_A3.1_[A6T]_F3.1_T3.1 (ssRNA)
RNA: B1 RNA with U24C, C25G, A29U, C30U
B41: Ib_S4_P3E.1_K3.1_C3.1_H3.1_[T1G]_A3.1_F3.1_[A8T]_T3.1 (ssRNA)
RNA: B1 RNA with U24G, C25G, C30U, A31U
B42: Ib_S4_P3E.1_K3.1_C3.1_H3.1_[G2C]_[A4G]_A3.1_F3.1_T3.1 (ssRNA)
RNA: B1 RNA with A27G, C30U
B43: Ib_S4_P3E.1_K3.1_C3.1_H3.1_[T1A]_A3.1_[A6C]_F3.1_T3.1 (ssRNA)
RNA: B1 RNA with U24A, C25G, A29C, C30U
B44: Ib_S4_P3E.1_K3.1_C3.1_H3.1_[T1G]_[A4C]_A3.1_F3.1_T3.1 (ssRNA)
RNA: B1 RNA with U24G, C25G, A27C, C30U
B45: Ic_S4_P3E.1_K3.1_C3.1_H3.1_A3.1_[T5A]_F3.1_[T7C]_T3.1 (ssRNA)
RNA: B1 RNA with C25G, U28A
B46: Ib_S4_P3E.1_K3.1_C3.1_H3.1_[T3C]_[A4C]_A3.1_F3.1_T3.1 (ssRNA)
RNA: B1 RNA with C25G, U26C, A27C, C30U
B47: Ib_S4_P3E.1_K3.1_C3.1_H3.1_[A4G]_A3.1_[T5C]_F3.1_T3.1 (ssRNA)
RNA: B1 RNA with C25G, A27G, U28C, C30U
B48: Ib_S4_P3E.1_K3.1_C3.1_H3.1_[T1C]_[A4C]_A3.1_F3.1_T3.1 (ssRNA)
RNA: B1 RNA with U24C, C25G, A27C, C30U
B49: Ic_S4_P3E.1_K3.1_C3.1_H3.1_A3.1_[A6T]_F3.1_[T7A]_T3.1 (ssRNA)
RNA: B1 RNA with C25G, A29U, C30A
B50: Ib_S4_P3E.1_K3.1_C3.1_H3.1_[T1G]_A3.1_[A6C]_F3.1_T3.1 (ssRNA)
RNA: B1 RNA with U24G, C25G, A29C, C30U
B51: Ib_S4_P3E.1_K3.1_C3.1_H3.1_A3.1_[A6G]_F3.1_[A8G]_T3.1 (ssRNA)
RNA: B1 RNA with C25G, A29G, C30U, A31G
B52: Ia_S4_P3E.1_K3.1_C3.1_H3.1_A3.1_F3.1_[T7A]_T3.1 (ssRNA)
RNA: B1 RNA with C25G, C30A
B53: Ib_S4_P3E.1_K3.1_C3.1_H3.1_[T1A]_A3.1_[T5A]_F3.1_T3.1 (ssRNA)
RNA: B1 RNA with U24A, C25G, U28A, C30U

What follows are binders tested against T1, PUF4 RNA-binding domain (assay: Mg; RNA-MaP; 20 mM Na-HEPES pH 7.4, 30 mM KOAc, 0.75 mM MgCl2, 0.1% Tween-20, 5% glycerol, 0.1 mg/mL BSA, 2 mM DTT; 25 C; 0.0125-409.6 nM protein). Settings: tags: N-His6-TEV cleaved; C-SNAP kept, Cy3B-labelled; label: tethered on chip by stalled RNA polymerase.

Row | Binder | Kd [nM]
1 | ACAAACUGUCUUAUUAACAAAC (ssRNA) [Ia_S3_P5E.1_K5.1_C5.1_H5.1_[A4C]_A5.1_F5.1_T5.1] | 365
2 | ACAAACAGUAUUAUUAACAAAC (ssRNA) [Ia_S3_P5E.1_K5.1_C5.1_H5.1_[T1A]_A5.1_F5.1_T5.1] | 1980
3 | ACAAACUAUAUAUUAACAAAC (ssRNA) [Ia_S3_P4E.1_K4.1_C4.1_H4.1_[G2A]_A4.1_F4.1_T4.1] | 33.9
4 | ACAAACAGUAUAUAACAAAC (ssRNA) [Ia_S3_P3E.1_K3.1_C3.1_H3.1_[T1A]_A3.1_F3.1_T3.1] | 2000
5 | UCUCUUUGCAUAUAUCUCUU (ssRNA) [Ia_S1_P3E.1_K3.1_C3.1_H3.1_[T3C]_A3.1_F3.1_T3.1] | > 2300
6 | B1 | 610
7 | B2 | > 2300
8 | B3 | 262
9 | B4 | > 2300
10 | B5 | 289
11 | B6 | > 2300
12 | B7 | 1510
13 | B8 | 1160
14 | B9 | 28.4
15 | B10 | 2120
16 | B11 | > 2300
17 | B12 | 9.55
18 | B13 | 121
19 | B14 | > 2300
20 | B15 | 11.9

Row | Binder | Kd [nM]
21 | B16 | 1640
22 | B17 | 383
23 | B18 | 645
24 | B19 | 72.2
25 | B20 | > 2300
26 | B21 | 5.75
27 | B22 | 225
28 | B23 | 13.5
29 | B24 | > 2300
30 | B25 | 443
31 | B26 | > 2300
32 | B27 | 1800
33 | B28 | > 2300
34 | B29 | > 2300
35 | B30 | 1900
36 | B31 | 25.7
37 | B32 | 198
38 | B33 | 295
39 | B34 | > 2300
40 | B35 | 1810

Row | Binder | Kd [nM]
41 | B36 | 296
42 | B37 | 35.5
43 | B38 | 2080
44 | B39 | 3.32
45 | B40 | > 2300
46 | B41 | > 2300
47 | B42 | 2.45
48 | B43 | > 2300
49 | B44 | > 2300
50 | B45 | 374
51 | B46 | > 2300
52 | B47 | 22.4
53 | B48 | > 2300
54 | B49 | 82
55 | B50 | > 2300
56 | B51 | 38.2
57 | B52 | 54.5
58 | B53 | > 2300
